Key:
[1] = biological target: T1, Anti-CD28 Fab (SEQ ID NOs: 696, 697); experiment: phage binding ELISA; biotinylated anti-CD28 Fab on neutravidin plate, clonal phage detected with anti-M13-HRP;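 further: crude clonal phage supernatants added briefly to wells preincubated in blocking buffer with or without CD28 antigen, then washed before detection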
T1 construct: Biotinylated and captured on neutravidin coated plates in the phage ELISA
T1 sequence (VH, as listed by the source, chain 1 of 2): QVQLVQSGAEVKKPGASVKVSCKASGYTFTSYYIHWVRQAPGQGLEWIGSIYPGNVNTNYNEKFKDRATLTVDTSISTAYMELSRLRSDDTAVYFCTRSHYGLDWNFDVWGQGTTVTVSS
T1 sequence (VL, as listed by the source, chain 2 of 2): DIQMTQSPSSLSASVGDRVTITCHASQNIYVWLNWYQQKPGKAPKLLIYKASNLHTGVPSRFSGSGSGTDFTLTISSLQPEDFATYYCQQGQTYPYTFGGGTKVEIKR
Method: (§1) Clonal phage were harvested as crude supematants and screened via standard ELISAs. […] Prior to the addition of clonal phage, wells were incubated with blocking buffer and CD28 antigen or blocking buffer alone. Without washing or aspirating, clonal phage supematants were then added to the wells and incubated for a short time. Wells were then washed followed by detection of bound phage using a horse radish conjugated anti-M13 antibody. Clonal phage of interest were then sent for sequence analysis.

[2] = biological target: T1, Anti-CD28 Fab (SEQ ID NOs: 696, 697); experiment: phage binding ELISA on captured anti-CD28 Fab; competitor: CD28 antigen pre-incubated in the well;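 further: clonal phage supernatants added briefly to wells preblocked with or without CD28, bound phage detected through an HRP-linked anti-M13 antibody, wells with blocking buffer alone as comparison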
Method: as §1

[3] = biological target: Anti-CD28 Fab (SEQ ID NOs: 696, 697); experiment: phage binding ELISA; biotinylated Fab on neutravidin plate, bound phage detected with anti-M13-HRP
Target sequence in this assay (VH, as listed by the source, chain 1 of 2): as the sequence (VH, as listed by the source, chain 1 of 2) above
Target sequence in this assay (VL, as listed by the source, chain 2 of 2): as the sequence (VL, as listed by the source, chain 2 of 2) above
Method: (§2) Clonal phage were harvested as crude supematants and screened via standard ELISAs. […] Prior to the addition of clonal phage, wells were incubated with blocking buffer and CD28 antigen or blocking buffer alone. Without washing or aspirating, clonal phage supematants were then added to the wells and incubated for a short time. Wells were then washed followed by detection of bound phage using a horse radish conjugated anti-M13 antibody.

[4] = biological target: Anti-CD28 Fab (SEQ ID NOs: 696, 697); experiment: phage binding ELISA; Fab-coated wells pre-incubated with CD28 antigen as competitor;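 further: clonal phage supernatants added to wells preincubated with CD28 antigen or blocking buffer only, bound phage detected with HRP-conjugated anti-M13 antibody, buffer-only wells as control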
Target sequence in this assay (VH, as listed by the source, chain 1 of 2): as the sequence (VH, as listed by the source, chain 1 of 2) above
Target sequence in this assay (VL, as listed by the source, chain 2 of 2): as the sequence (VL, as listed by the source, chain 2 of 2) above
Method: as §2

[5] = biological target: T2, Anti-CD28 Fab (SEQ ID NOs: 696, 697); experiment: phage ELISA; biotinylated anti-CD28 Fab on neutravidin plate, bound phage detected with anti-M13-HRP
T2 construct: In the phage ELISA the Fab was biotinylated and captured on neutravidin coated plates
T2 sequence (VH, as listed by the source, chain 1 of 2): as the sequence (VH, as listed by the source, chain 1 of 2) above
T2 sequence (VL, as listed by the source, chain 2 of 2): as the sequence (VL, as listed by the source, chain 2 of 2) above
Method: as §2

[6] = biological target: T2, Anti-CD28 Fab (SEQ ID NOs: 696, 697); experiment: phage ELISA on captured anti-CD28 Fab; wells pre-incubated with CD28 antigen as competitor;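 further: clonal phage from crude supernatants added to wells pretreated with blocking buffer with or without CD28, bound phage read by ELISA with HRP-conjugated anti-M13 antibody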
Method: as §1

[7] = biological target: T3, Anti-CD28 Fab (SEQ ID NOs: 696, 697); experiment: as above; remark: listed apart in the source
T3 construct: In the phage ELISA the Fab was biotinylated and captured on neutravidin coated plates
T3 sequence (VH, as listed by the source, chain 1 of 2): as the sequence (VH, as listed by the source, chain 1 of 2) above
T3 sequence (VL, as listed by the source, chain 2 of 2): as the sequence (VL, as listed by the source, chain 2 of 2) above
Method: as §1

[8] = biological target: T3, Anti-CD28 Fab (SEQ ID NOs: 696, 697); experiment: phage ELISA; biotinylated anti-CD28 Fab captured on neutravidin plate, clonal phage detected with HRP anti-M13 antibody
Method: as §2

PCAAGAMWAWPYCL (tested as crude phage supernatant) [Phage-1552]
Anti-CD28 Fab signal (phage binding ELISA) [1]: 1.49
Anti-CD28 Fab signal in the presence of CD28 (phage binding ELISA) [2]: 0.05

SCSAFFHFHWPACL [Phage-1594]
Anti-CD28 Fab signal [3]: 1.38
Anti-CD28 Fab signal in the presence of CD28 [4]: 0.06

TCSAGAHWVWPYCL [Phage-1596]
Anti-CD28 Fab signal [3]: 1.37
Anti-CD28 Fab signal in the presence of CD28 [4]: 0.09

SCSAGAMYTWPTCL [Phage-1613]
Phage binding ELISA, Anti-CD28 Fab signal [5]: 1.31
Phage binding ELISA, Anti-CD28 Fab signal in the presence of CD28 [6]: 0.08

NCSAGATWPWPMCF (tested as crude phage supernatant) [Phage-1553]
Anti-CD28 Fab signal (phage binding ELISA) [1]: 1.49
Anti-CD28 Fab signal in the presence of CD28 (phage binding ELISA) [2]: 0.1

RCAAVFSYTWPPCL [Phage-1618]
Phage binding ELISA, Anti-CD28 Fab signal [5]: 1.29
Phage binding ELISA, Anti-CD28 Fab signal in the presence of CD28 [6]: 0.07

SCSAGATYEWPYCF (tested as crude phage supernatant) [Phage-1560]
Anti-CD28 Fab signal (phage binding ELISA) [1]: 1.47
Anti-CD28 Fab signal in the presence of CD28 (phage binding ELISA) [2]: 0.06

SCSAGATYTWPACL [Phage-1605]
Phage binding ELISA, Anti-CD28 Fab signal [5]: 1.34
Phage binding ELISA, Anti-CD28 Fab signal in the presence of CD28 [6]: 0.07

TCAAGATYTWPTCF (tested as crude phage supernatant) [Phage-1555]
Anti-CD28 Fab signal (phage binding ELISA) [1]: 1.48
Anti-CD28 Fab signal in the presence of CD28 (phage binding ELISA) [2]: 0.05

TCSAGAAYEWPECF [Phage-1602]
Anti-CD28 Fab signal [3]: 1.36
Anti-CD28 Fab signal in the presence of CD28 [4]: 0.06

LCAAGAAWEWPMCF [Phage-1614]
Phage binding ELISA, Anti-CD28 Fab signal [5]: 1.3
Phage binding ELISA, Anti-CD28 Fab signal in the presence of CD28 [6]: 0.06

TCTAGFSYKWPTCL [Phage-1621]
Phage binding ELISA, Anti-CD28 Fab signal in the presence of CD28 [7]: 0.09
Phage binding ELISA, Anti-CD28 Fab signal [8]: 1.28

SCAAGAAWGWPACF [Phage-1592]
Anti-CD28 Fab signal [3]: 1.39
Anti-CD28 Fab signal in the presence of CD28 [4]: 0.09

SCAAGATYGWPECF [Phage-1597]
Anti-CD28 Fab signal [3]: 1.36
Anti-CD28 Fab signal in the presence of CD28 [4]: 0.07

TCSAGATYKWPVCL (tested as crude phage supernatant) [Phage-1559]
Anti-CD28 Fab signal (phage binding ELISA) [1]: 1.47
Anti-CD28 Fab signal in the presence of CD28 (phage binding ELISA) [2]: 0.06

TCSAGATYKWPACF [Phage-1619]
Phage binding ELISA, Anti-CD28 Fab signal in the presence of CD28 [7]: 0.05
Phage binding ELISA, Anti-CD28 Fab signal [8]: 1.29

TCSAGAAWTWPLCF [Phage-1601]
Anti-CD28 Fab signal [3]: 1.36
Anti-CD28 Fab signal in the presence of CD28 [4]: 0.06

QCSAGATYAWPFCL [Phage-1615]
Phage binding ELISA, Anti-CD28 Fab signal [5]: 1.29
Phage binding ELISA, Anti-CD28 Fab signal in the presence of CD28 [6]: 0.08

TCAAGATYEWPSCL [Phage-1612]
Phage binding ELISA, Anti-CD28 Fab signal [5]: 1.32
Phage binding ELISA, Anti-CD28 Fab signal in the presence of CD28 [6]: 0.09

SCAAGATWAWPACL [Phage-1598]
Anti-CD28 Fab signal [3]: 1.36
Anti-CD28 Fab signal in the presence of CD28 [4]: 0.06

SCAAGAMWEWPKCF [Phage-1610]
Phage binding ELISA, Anti-CD28 Fab signal [5]: 1.32
Phage binding ELISA, Anti-CD28 Fab signal in the presence of CD28 [6]: 0.09

SCAAGATYTWPFCL [Phage-1617]
Phage binding ELISA, Anti-CD28 Fab signal [5]: 1.29
Phage binding ELISA, Anti-CD28 Fab signal in the presence of CD28 [6]: 0.07

TCAAGATYSWPDCF (tested as crude phage supernatant) [Phage-1549]
Anti-CD28 Fab signal (phage binding ELISA) [1]: 1.51
Anti-CD28 Fab signal in the presence of CD28 (phage binding ELISA) [2]: 0.06

TCAAGAAYTWPVCF [Phage-1609]
Phage binding ELISA, Anti-CD28 Fab signal [5]: 1.32
Phage binding ELISA, Anti-CD28 Fab signal in the presence of CD28 [6]: 0.08

SCADGAIWEWPWCF [Phage-1611]
Phage binding ELISA, Anti-CD28 Fab signal [5]: 1.32
Phage binding ELISA, Anti-CD28 Fab signal in the presence of CD28 [6]: 0.07

ICAAGFIWSWPACF (tested as crude phage supernatant) [Phage-1548]
Anti-CD28 Fab signal (phage binding ELISA) [1]: 1.51
Anti-CD28 Fab signal in the presence of CD28 (phage binding ELISA) [2]: 0.08

QCAAGAMWTWPVCF (tested as crude phage supernatant) [Phage-1550]
Anti-CD28 Fab signal (phage binding ELISA) [1]: 1.5
Anti-CD28 Fab signal in the presence of CD28 (phage binding ELISA) [2]: 0.07

NCSAGATWPWPMCF [Phage-1622]
Phage binding ELISA, Anti-CD28 Fab signal in the presence of CD28 [7]: 0.06
Phage binding ELISA, Anti-CD28 Fab signal [8]: 1.27

TCSAGAEYTWPLCF [Phage-1591]
Anti-CD28 Fab signal [3]: 1.4
Anti-CD28 Fab signal in the presence of CD28 [4]: 0.08

TCAAGATWLWPVCL [Phage-1593]
Anti-CD28 Fab signal [3]: 1.39
Anti-CD28 Fab signal in the presence of CD28 [4]: 0.08

TCAAGVPYKWPPCL [Phage-1616]
Phage binding ELISA, Anti-CD28 Fab signal [5]: 1.29
Phage binding ELISA, Anti-CD28 Fab signal in the presence of CD28 [6]: 0.06

LCAAGAYYPWPLCF [Phage-1620]
Phage binding ELISA, Anti-CD28 Fab signal in the presence of CD28 [7]: 0.06
Phage binding ELISA, Anti-CD28 Fab signal [8]: 1.28

SCAAGAHYKWPVCI (tested as crude phage supernatant) [Phage-1547]
Anti-CD28 Fab signal (phage binding ELISA) [1]: 1.51
Anti-CD28 Fab signal in the presence of CD28 (phage binding ELISA) [2]: 0.06

TCSAGALWEWPMCF [Phage-1603]
Anti-CD28 Fab signal [3]: 1.35
Anti-CD28 Fab signal in the presence of CD28 [4]: 0.06

TCAAGAHYLWPHCL (tested as crude phage supernatant) [Phage-1551]
Anti-CD28 Fab signal (phage binding ELISA) [1]: 1.5
Anti-CD28 Fab signal in the presence of CD28 (phage binding ELISA) [2]: 0.12

SCSAGATYQWPYCF [Phage-1623]
Phage binding ELISA, Anti-CD28 Fab signal in the presence of CD28 [7]: 0.06
Phage binding ELISA, Anti-CD28 Fab signal [8]: 1.26

TCAAGASWEWPACL (tested as crude phage supernatant) [Phage-1556]
Anti-CD28 Fab signal (phage binding ELISA) [1]: 1.48
Anti-CD28 Fab signal in the presence of CD28 (phage binding ELISA) [2]: 0.08

SCAAGAHYPWPECL [Phage-1607]
Phage binding ELISA, Anti-CD28 Fab signal [5]: 1.32
Phage binding ELISA, Anti-CD28 Fab signal in the presence of CD28 [6]: 0.05

TCSAGAGYPWPTCL [Phage-1600]
Anti-CD28 Fab signal [3]: 1.36
Anti-CD28 Fab signal in the presence of CD28 [4]: 0.06

TCAAGVHFGWPLCF (tested as crude phage supernatant) [Phage-1554]
Anti-CD28 Fab signal (phage binding ELISA) [1]: 1.49
Anti-CD28 Fab signal in the presence of CD28 (phage binding ELISA) [2]: 0.07

SCAEVFNYVWPFCF [Phage-1608]
Phage binding ELISA, Anti-CD28 Fab signal [5]: 1.32
Phage binding ELISA, Anti-CD28 Fab signal in the presence of CD28 [6]: 0.07

TCAAGAMYQWPECF (tested as crude phage supernatant) [Phage-1557]
Anti-CD28 Fab signal (phage binding ELISA) [1]: 1.48
Anti-CD28 Fab signal in the presence of CD28 (phage binding ELISA) [2]: 0.06

PCAAGAHYTWPTCL [Phage-1604]
Anti-CD28 Fab signal [3]: 1.34
Anti-CD28 Fab signal in the presence of CD28 [4]: 0.07

TCSAGANWVWPLCL [Phage-1595]
Anti-CD28 Fab signal [3]: 1.38
Anti-CD28 Fab signal in the presence of CD28 [4]: 0.07

TCSAGAHYSWPKCF [Phage-1606]
Phage binding ELISA, Anti-CD28 Fab signal [5]: 1.33
Phage binding ELISA, Anti-CD28 Fab signal in the presence of CD28 [6]: 0.07

TCAAGAHYTWPTCL (tested as crude phage supernatant) [Phage-1558]
Anti-CD28 Fab signal (phage binding ELISA) [1]: 1.47
Anti-CD28 Fab signal in the presence of CD28 (phage binding ELISA) [2]: 0.07

LCSAGAMWEWPLCL [Phage-1599]
Anti-CD28 Fab signal [3]: 1.36
Anti-CD28 Fab signal in the presence of CD28 [4]: 0.07

— patent US20260242478A1 (published 2026)
